Assay results reported in paper PMC4615894.

Target: CENP-W (Xenopus (endogenous in egg extract))
Test: co-IP

percent co-depleted: 80%
Substance: CENP-C (natural protein)
